One assay addresses ER-α36 LBD (3T3 Clone#4). Kind of assay: flow cytometry on 3T3 cells, ER-α36 LBD Clone#4, isotype control at 2.5 µg/ml.
Assay [1] addresses human ER-α36 (human) (UniProt P03372). Kind of assay: flow cytometry on 3T3 cells, ER-α36 Full length Clone#2, isotype control at 2.5 µg/ml. Background: In flow cytometry, cells or beads pass a laser one at a time.
The target is the same in assay [2]. Nature of the assay: flow cytometry on K562 cells, isotype control, concentration not given.
Assay [3] has the same target. Kind of assay: flow cytometry on MHCC-97H cells, isotype control; first lower panel without sample name, assigned by peak height (about 75) against histogram 4 of the overlay.
Assay [4] shares this target. Nature of the assay: flow cytometry on MHCC-97H cells, isotype control; second lower panel without sample name, assigned by peak height against histogram 3 of the overlay.
The target is the same in assay [5]. Kind of assay: flow cytometry on SK-BR-3 cells, isotype control; lower left panel without sample name, assigned by the order of the samples.
Assay [6] shares this target. Nature of the assay: flow cytometry on MCF-7 cells, isotype control; lower left panel, which carries no sample name: assigned by peak height and by the order of the samples.

Sequence of human ER-α36 (human) (P03372 other isoform, or with tags, fused parts or gaps): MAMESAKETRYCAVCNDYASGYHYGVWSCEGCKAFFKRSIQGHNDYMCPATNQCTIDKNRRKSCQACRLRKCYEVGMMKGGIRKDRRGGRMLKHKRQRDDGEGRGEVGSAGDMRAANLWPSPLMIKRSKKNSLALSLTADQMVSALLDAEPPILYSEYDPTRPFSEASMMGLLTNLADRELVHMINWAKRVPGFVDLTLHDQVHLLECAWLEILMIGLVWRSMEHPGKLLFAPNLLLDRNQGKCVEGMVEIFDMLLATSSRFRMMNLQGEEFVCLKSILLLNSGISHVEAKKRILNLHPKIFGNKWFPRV
Sequence of ER-α36 LBD (3T3 Clone#4) (single chain, as listed by the source): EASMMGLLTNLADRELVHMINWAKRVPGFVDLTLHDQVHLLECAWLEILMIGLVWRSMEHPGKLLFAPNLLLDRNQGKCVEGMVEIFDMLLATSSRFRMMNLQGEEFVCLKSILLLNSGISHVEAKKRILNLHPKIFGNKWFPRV

As for mouse IgG2b (antibody), the values for the %Gated (region B) with ER-α36 LBD (3T3 Clone#4) and with human ER-α36 (human) [1] were 4.93% and 4.86%, respectively. The substance also returned a Geom. Mean FL1 with human ER-α36 (human) [2] of 24.3. Also, the Yellow-A subset (percent of cells in the gate) in the assay with human ER-α36 (human) [3] turned out to be 6.82%; with human ER-α36 (human) [4], 5.68%; with human ER-α36 (human) [5], 13.1%; with human ER-α36 (human) [6] it was 19.9%.

The values are drawn from patent US20160046721A1.
